From patent US20250249120A1 (CHILDREN S HEALTH CARE D B A CHILDREN S MINNESOTA, published 2025)

Biological target: T1, CD179a (VpreB1) component of the pre-BCR surrogate light chain, on B-ALL cells (human, UniProt P12018 20-145)
T1 sequence (looked up): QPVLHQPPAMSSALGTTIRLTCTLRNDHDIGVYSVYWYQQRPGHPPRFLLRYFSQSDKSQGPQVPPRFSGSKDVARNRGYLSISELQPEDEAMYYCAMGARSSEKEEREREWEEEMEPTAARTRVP
Test: cell-based or functional assay

B1: calicheamicin-based antibody-drug conjugate (ADC) against CD179a (antibody, human IgG1, kappa, V domains shown)
VH: EVQLVESGGGLVKPGGSLRLSCAASGFTFSNFEMNWVRQAPGKGLEWVSGISSNGRYINYADSVKGRFTISRDNAKNSLYLQMNSLRAEDTAVYYCARVVDFDQDYNGFDYWGQGTLVTVSS
VL: DIQLTQSPSFLSASVGDRVTITCRASQGISTDLNWYQQKPGKAPKLLIYAASNLESGVPSRFSGSGSGTEFTLTISSLQPEDFATYYCQQSYNWPYTFGGGTKVEIKR
modifications: AcBut-calicheamicin linker-payload, DAR of 5:1, conjugated residues not stated
- IC50 (the inhibitory concentration that causes 50% of cells to die), Nalm6 B-ALL cell line: 59 ng/mL
